B1: dBBDu183H V100cG / dBBDu072L (antibody, name in Kabat numbering, V domains shown)
VH: QVQLVESGGGLVQPGRSLRLSCAASGFTFSNAWMHWVRQAPGKGLEWVAQIKDKGNAYAAYYAPSVKGRFTISRDDSKNSIYLQMNSLKTEDTAVYYCHYVHYASASTGLPAFGVDAWGQGTTVTVSS
VL: DIVMTQSPLSLPVTPGEPASISCQASQELVHMNRNTYLHWYQQKPGQAPRLLIYKVSNRFPGVPDRFSGSGSGTDFTLKISRVEAEDVGVYYCAQGTSVPFTFGQGTKLEIK
B2: dBBDu183H L100dG / dBBDu072L (antibody, name in Kabat numbering, V domains shown)
VH: QVQLVESGGGLVQPGRSLRLSCAASGFTFSNAWMHWVRQAPGKGLEWVAQIKDKGNAYAAYYAPSVKGRFTISRDDSKNSIYLQMNSLKTEDTAVYYCHYVHYASASTVGPAFGVDAWGQGTTVTVSS
VL: DIVMTQSPLSLPVTPGEPASISCQASQELVHMNRNTYLHWYQQKPGQAPRLLIYKVSNRFPGVPDRFSGSGSGTDFTLKISRVEAEDVGVYYCAQGTSVPFTFGQGTKLEIK
B3: dBBDu183H F100gG / dBBDu072L (antibody, name in Kabat numbering, V domains shown)
VH: QVQLVESGGGLVQPGRSLRLSCAASGFTFSNAWMHWVRQAPGKGLEWVAQIKDKGNAYAAYYAPSVKGRFTISRDDSKNSIYLQMNSLKTEDTAVYYCHYVHYASASTVLPAGGVDAWGQGTTVTVSS
VL: DIVMTQSPLSLPVTPGEPASISCQASQELVHMNRNTYLHWYQQKPGQAPRLLIYKVSNRFPGVPDRFSGSGSGTDFTLKISRVEAEDVGVYYCAQGTSVPFTFGQGTKLEIK
B4: dBBDu183H V100iG / dBBDu072L (antibody, name in Kabat numbering, V domains shown)
VH: QVQLVESGGGLVQPGRSLRLSCAASGFTFSNAWMHWVRQAPGKGLEWVAQIKDKGNAYAAYYAPSVKGRFTISRDDSKNSIYLQMNSLKTEDTAVYYCHYVHYASASTVLPAFGGDAWGQGTTVTVSS
VL: DIVMTQSPLSLPVTPGEPASISCQASQELVHMNRNTYLHWYQQKPGQAPRLLIYKVSNRFPGVPDRFSGSGSGTDFTLKISRVEAEDVGVYYCAQGTSVPFTFGQGTKLEIK
B5: dBBDu183H D101G / dBBDu072L (antibody, name in Kabat numbering, V domains shown)
VH: QVQLVESGGGLVQPGRSLRLSCAASGFTFSNAWMHWVRQAPGKGLEWVAQIKDKGNAYAAYYAPSVKGRFTISRDDSKNSIYLQMNSLKTEDTAVYYCHYVHYASASTVLPAFGVGAWGQGTTVTVSS
VL: DIVMTQSPLSLPVTPGEPASISCQASQELVHMNRNTYLHWYQQKPGQAPRLLIYKVSNRFPGVPDRFSGSGSGTDFTLKISRVEAEDVGVYYCAQGTSVPFTFGQGTKLEIK
B6: dBBDu183H V95N / dBBDu072L (antibody, name in Kabat numbering, V domains shown)
VH: QVQLVESGGGLVQPGRSLRLSCAASGFTFSNAWMHWVRQAPGKGLEWVAQIKDKGNAYAAYYAPSVKGRFTISRDDSKNSIYLQMNSLKTEDTAVYYCHYNHYASASTVLPAFGVDAWGQGTTVTVSS
VL: DIVMTQSPLSLPVTPGEPASISCQASQELVHMNRNTYLHWYQQKPGQAPRLLIYKVSNRFPGVPDRFSGSGSGTDFTLKISRVEAEDVGVYYCAQGTSVPFTFGQGTKLEIK
B7: dBBDu183H H96N / dBBDu072L (antibody, name in Kabat numbering, V domains shown)
VH: QVQLVESGGGLVQPGRSLRLSCAASGFTFSNAWMHWVRQAPGKGLEWVAQIKDKGNAYAAYYAPSVKGRFTISRDDSKNSIYLQMNSLKTEDTAVYYCHYVNYASASTVLPAFGVDAWGQGTTVTVSS
VL: DIVMTQSPLSLPVTPGEPASISCQASQELVHMNRNTYLHWYQQKPGQAPRLLIYKVSNRFPGVPDRFSGSGSGTDFTLKISRVEAEDVGVYYCAQGTSVPFTFGQGTKLEIK
B8: dBBDu183H Y97N / dBBDu072L (antibody, name in Kabat numbering, V domains shown)
VH: QVQLVESGGGLVQPGRSLRLSCAASGFTFSNAWMHWVRQAPGKGLEWVAQIKDKGNAYAAYYAPSVKGRFTISRDDSKNSIYLQMNSLKTEDTAVYYCHYVHNASASTVLPAFGVDAWGQGTTVTVSS
VL: DIVMTQSPLSLPVTPGEPASISCQASQELVHMNRNTYLHWYQQKPGQAPRLLIYKVSNRFPGVPDRFSGSGSGTDFTLKISRVEAEDVGVYYCAQGTSVPFTFGQGTKLEIK
B9: dBBDu183H A98N / dBBDu072L (antibody, name in Kabat numbering, V domains shown)
VH: QVQLVESGGGLVQPGRSLRLSCAASGFTFSNAWMHWVRQAPGKGLEWVAQIKDKGNAYAAYYAPSVKGRFTISRDDSKNSIYLQMNSLKTEDTAVYYCHYVHYNSASTVLPAFGVDAWGQGTTVTVSS
VL: DIVMTQSPLSLPVTPGEPASISCQASQELVHMNRNTYLHWYQQKPGQAPRLLIYKVSNRFPGVPDRFSGSGSGTDFTLKISRVEAEDVGVYYCAQGTSVPFTFGQGTKLEIK
B10: dBBDu183H S99N / dBBDu072L (antibody, name in Kabat numbering, V domains shown)
VH: QVQLVESGGGLVQPGRSLRLSCAASGFTFSNAWMHWVRQAPGKGLEWVAQIKDKGNAYAAYYAPSVKGRFTISRDDSKNSIYLQMNSLKTEDTAVYYCHYVHYANASTVLPAFGVDAWGQGTTVTVSS
VL: DIVMTQSPLSLPVTPGEPASISCQASQELVHMNRNTYLHWYQQKPGQAPRLLIYKVSNRFPGVPDRFSGSGSGTDFTLKISRVEAEDVGVYYCAQGTSVPFTFGQGTKLEIK
B11: dBBDu183H S100aN / dBBDu072L (antibody, name in Kabat numbering, V domains shown)
VH: QVQLVESGGGLVQPGRSLRLSCAASGFTFSNAWMHWVRQAPGKGLEWVAQIKDKGNAYAAYYAPSVKGRFTISRDDSKNSIYLQMNSLKTEDTAVYYCHYVHYASANTVLPAFGVDAWGQGTTVTVSS
VL: DIVMTQSPLSLPVTPGEPASISCQASQELVHMNRNTYLHWYQQKPGQAPRLLIYKVSNRFPGVPDRFSGSGSGTDFTLKISRVEAEDVGVYYCAQGTSVPFTFGQGTKLEIK
B12: dBBDu183H V100cN / dBBDu072L (antibody, name in Kabat numbering, V domains shown)
VH: QVQLVESGGGLVQPGRSLRLSCAASGFTFSNAWMHWVRQAPGKGLEWVAQIKDKGNAYAAYYAPSVKGRFTISRDDSKNSIYLQMNSLKTEDTAVYYCHYVHYASASTNLPAFGVDAWGQGTTVTVSS
VL: DIVMTQSPLSLPVTPGEPASISCQASQELVHMNRNTYLHWYQQKPGQAPRLLIYKVSNRFPGVPDRFSGSGSGTDFTLKISRVEAEDVGVYYCAQGTSVPFTFGQGTKLEIK
B13: dBBDu183H L100dN / dBBDu072L (antibody, name in Kabat numbering, V domains shown)
VH: QVQLVESGGGLVQPGRSLRLSCAASGFTFSNAWMHWVRQAPGKGLEWVAQIKDKGNAYAAYYAPSVKGRFTISRDDSKNSIYLQMNSLKTEDTAVYYCHYVHYASASTVNPAFGVDAWGQGTTVTVSS
VL: DIVMTQSPLSLPVTPGEPASISCQASQELVHMNRNTYLHWYQQKPGQAPRLLIYKVSNRFPGVPDRFSGSGSGTDFTLKISRVEAEDVGVYYCAQGTSVPFTFGQGTKLEIK
B14: dBBDu183H A100fN / dBBDu072L (antibody, name in Kabat numbering, V domains shown)
VH: QVQLVESGGGLVQPGRSLRLSCAASGFTFSNAWMHWVRQAPGKGLEWVAQIKDKGNAYAAYYAPSVKGRFTISRDDSKNSIYLQMNSLKTEDTAVYYCHYVHYASASTVLPNFGVDAWGQGTTVTVSS
VL: DIVMTQSPLSLPVTPGEPASISCQASQELVHMNRNTYLHWYQQKPGQAPRLLIYKVSNRFPGVPDRFSGSGSGTDFTLKISRVEAEDVGVYYCAQGTSVPFTFGQGTKLEIK
B15: dBBDu183H F100gN / dBBDu072L (antibody, name in Kabat numbering, V domains shown)
VH: QVQLVESGGGLVQPGRSLRLSCAASGFTFSNAWMHWVRQAPGKGLEWVAQIKDKGNAYAAYYAPSVKGRFTISRDDSKNSIYLQMNSLKTEDTAVYYCHYVHYASASTVLPANGVDAWGQGTTVTVSS
VL: DIVMTQSPLSLPVTPGEPASISCQASQELVHMNRNTYLHWYQQKPGQAPRLLIYKVSNRFPGVPDRFSGSGSGTDFTLKISRVEAEDVGVYYCAQGTSVPFTFGQGTKLEIK
B16: dBBDu183H G100hN / dBBDu072L (antibody, name in Kabat numbering, V domains shown)
VH: QVQLVESGGGLVQPGRSLRLSCAASGFTFSNAWMHWVRQAPGKGLEWVAQIKDKGNAYAAYYAPSVKGRFTISRDDSKNSIYLQMNSLKTEDTAVYYCHYVHYASASTVLPAFNVDAWGQGTTVTVSS
VL: DIVMTQSPLSLPVTPGEPASISCQASQELVHMNRNTYLHWYQQKPGQAPRLLIYKVSNRFPGVPDRFSGSGSGTDFTLKISRVEAEDVGVYYCAQGTSVPFTFGQGTKLEIK
B17: dBBDu183H V100iN / dBBDu072L (antibody, name in Kabat numbering, V domains shown)
VH: QVQLVESGGGLVQPGRSLRLSCAASGFTFSNAWMHWVRQAPGKGLEWVAQIKDKGNAYAAYYAPSVKGRFTISRDDSKNSIYLQMNSLKTEDTAVYYCHYVHYASASTVLPAFGNDAWGQGTTVTVSS
VL: DIVMTQSPLSLPVTPGEPASISCQASQELVHMNRNTYLHWYQQKPGQAPRLLIYKVSNRFPGVPDRFSGSGSGTDFTLKISRVEAEDVGVYYCAQGTSVPFTFGQGTKLEIK
B18: dBBDu183H A102N / dBBDu072L (antibody, name in Kabat numbering, V domains shown)
VH: QVQLVESGGGLVQPGRSLRLSCAASGFTFSNAWMHWVRQAPGKGLEWVAQIKDKGNAYAAYYAPSVKGRFTISRDDSKNSIYLQMNSLKTEDTAVYYCHYVHYASASTVLPAFGVDNWGQGTTVTVSS
VL: DIVMTQSPLSLPVTPGEPASISCQASQELVHMNRNTYLHWYQQKPGQAPRLLIYKVSNRFPGVPDRFSGSGSGTDFTLKISRVEAEDVGVYYCAQGTSVPFTFGQGTKLEIK
B19: dBBDu183H H93Q / dBBDu072L (antibody, name in Kabat numbering, V domains shown)
VH: QVQLVESGGGLVQPGRSLRLSCAASGFTFSNAWMHWVRQAPGKGLEWVAQIKDKGNAYAAYYAPSVKGRFTISRDDSKNSIYLQMNSLKTEDTAVYYCQYVHYASASTVLPAFGVDAWGQGTTVTVSS
VL: DIVMTQSPLSLPVTPGEPASISCQASQELVHMNRNTYLHWYQQKPGQAPRLLIYKVSNRFPGVPDRFSGSGSGTDFTLKISRVEAEDVGVYYCAQGTSVPFTFGQGTKLEIK
B20: dBBDu183H V95Q / dBBDu072L (antibody, name in Kabat numbering, V domains shown)
VH: QVQLVESGGGLVQPGRSLRLSCAASGFTFSNAWMHWVRQAPGKGLEWVAQIKDKGNAYAAYYAPSVKGRFTISRDDSKNSIYLQMNSLKTEDTAVYYCHYQHYASASTVLPAFGVDAWGQGTTVTVSS
VL: DIVMTQSPLSLPVTPGEPASISCQASQELVHMNRNTYLHWYQQKPGQAPRLLIYKVSNRFPGVPDRFSGSGSGTDFTLKISRVEAEDVGVYYCAQGTSVPFTFGQGTKLEIK
B21: dBBDu183H H96Q / dBBDu072L (antibody, name in Kabat numbering, V domains shown)
VH: QVQLVESGGGLVQPGRSLRLSCAASGFTFSNAWMHWVRQAPGKGLEWVAQIKDKGNAYAAYYAPSVKGRFTISRDDSKNSIYLQMNSLKTEDTAVYYCHYVQYASASTVLPAFGVDAWGQGTTVTVSS
VL: DIVMTQSPLSLPVTPGEPASISCQASQELVHMNRNTYLHWYQQKPGQAPRLLIYKVSNRFPGVPDRFSGSGSGTDFTLKISRVEAEDVGVYYCAQGTSVPFTFGQGTKLEIK

What follows are binders tested against Human CD137 ECD (human) (assay: SPR, vs parent H183/L072).
Human CD137 ECD (human), sequence (chain, as listed by the source limits assumed): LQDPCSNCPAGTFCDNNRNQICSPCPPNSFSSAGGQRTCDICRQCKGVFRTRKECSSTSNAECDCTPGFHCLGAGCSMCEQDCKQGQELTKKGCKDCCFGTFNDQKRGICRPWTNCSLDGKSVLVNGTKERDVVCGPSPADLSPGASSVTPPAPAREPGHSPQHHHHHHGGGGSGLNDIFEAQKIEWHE

Fold change of affinity, 0 fold:
B1, B2, B3, B4, B5, B6, B7, B8, B9, B10, B11, B12, B13, B14, B15, B16, B17, B18, B19, B20, B21

Reference: US20210388087A1
